Measurements reported in patent publication US20260234276A1 (DOMAIN THERAPEUTICS, published 2026).

Legend:
CCR8 SNAP-tag = CCR8 SNAP-tag (human, UniProt P51685 1-355, SNAP-tag labelled with Lumi4-Terbium); test: cell-based or functional assay
[1] = target: T1, biotinylated CCR8 peptide (human, N-terminal biotin); test: ELISA, soluble Fab on biotinylated CCR8 peptide captured on streptavidin
T1 construct: first 34 residues of human CCR8 plus a C-terminal K; also called biotinylated target peptide
Procedure: (§1) The wells of a microtiter plate were coated with 200 ng streptavidin protein in 100 μL Coating Buffer (0.1 M NaHCO₃, pH 8.6), and then incubated overnight at 4° C. For negative control, the wells were coated with PBS to determine non-specific binding. After shaking out the coating solution, the wells were washed three times with washing buffer (0.1% Tween 20-PBS). To prevent non-specific binding, 200 μL Blocking Buffer (3% BSA-PBS) was adding and incubated for 2 h at 37° C. After shaking out the blocking buffer, the wells were incubated with 50 ng biotinylated target peptide (SEQ ID NO: 420; see Example 10) in 100 μL Blocking Buffer for 1 h at 37° C. The control well was incubated with only 100 μL Blocking Buffer for 1 h at 37° C. After shaking out the biotinylated target peptide or buffer solution, the wells were washed 3 times with the washing buffer (0.1% Tween 20-PBS). Then 100 μL supernatant containing soluble Fab were added and incubated for 2 h at 37° C. Following three washes with washing buffer (0.1% Tween 20-PBS) for 3 times, 100 μL/well HRP conjugate of mouse anti-Flag tag mAb (Sigma A8592, 1:5000) diluted in Blocking Buffer were added and incubated for 1 h at 37° C. After washings, 3,3′,5,5′-tetramethylbenzidine (TMB) (Sigma) were added for 5 to 30 min at room temperature. The reaction was stopped by adding 50 μL/well of 1 M H₂SO₄.

streptavidin = target: T2, streptavidin (UniProt P22629 37-163, limits assumed); test: ELISA, soluble Fab on streptavidin-coated control well without peptide
T2 construct: control well without peptide
Procedure: as §1

T2 sequence (P22629 37-163 limits assumed): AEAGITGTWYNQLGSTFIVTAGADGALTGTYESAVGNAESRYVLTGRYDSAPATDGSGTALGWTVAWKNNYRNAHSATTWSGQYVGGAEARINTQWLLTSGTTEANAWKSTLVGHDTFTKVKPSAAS

Binder | % of internalization at 1 µg/ml mAb (HTRF) (CCR8 SNAP-tag) | % of internalization at 10 µg/ml mAb (HTRF) (CCR8 SNAP-tag) | Optical Density [1] | Optical Density (streptavidin)
Ref #3 (antibody, human IgG1, V domains shown) VH: QVQLVQSGAEVKKPGASVKVSCKASGYTFTSYYMHWVRQAPGQGLEWMGIINPSGGSTSYAQKFQGRVTMTRDTSTSTVYMELSSLRSEDTAVYYCARAVRNRFRFDYWGQGTLVTVSS VL: QSALTQPASVSGSPGQSITISCTGTSSDVGSYNLVSWYQQHPGKAPKLMIYEVSKRPSGVSNRFSGSKSGNTASLTISGLQAEDEADYYCSSYAGSSTFVVFGGGTKLTVL | 100% | 90% |  | 
Ref #4 (antibody, human IgG1, V domains shown) VH: EVQLVESGGGLVQPGGSLKLSCAASGFTFNTYAMNWVRQASGKGLEWVARIRSKANNYATYYADSVKDRFTISRDDSKNTLYLQMNNLKTEDTAVYYCVRDRSRGEDYAMDYWGQGTLVTVSS VL: DIVMTQSPLSLPVTPGEPASISCRSSKSLLHSNANTYLYWFLQKPGQSPQLLIYRMSNLASGVPDRFSGSGSGTAFTLKISRVEAEDVGVYYCMQHLEYPFTFGQGTKLEIK | 95% | 103% |  | 
3-65 (Fab, V domains shown, soluble Fab from phage display library huFabL-4, Flag tag) VH: QVTLKESGGGVVQPGRSLRLSCAASEFTFRNYAMHWVRQAPGKGLEWVAVISYDGSNKYYADSVKGRFTISRDISKNMVFLQMNSLRADDTAVYYCARGTFLAYWGQGTLVTVSS VL: EIVLTQSPLSLPVTLGQPASISCRSSQSLVHSDGNTYLSWFQQRPGQSPRRLIYKVSNRDSGVPDRFSGSGSGTDFTLKISRVEAEDVGVYYCMQGIHLPLTFGGGTKLEIKR |  |  | 3.29 OD450 | 0.07 OD450
3-63 (Fab, V domains shown, soluble Fab from phage display library huFabL-4, Flag tag) VH: QVQLQESGGGVVQPGRSLRLSCAASGFTFSSYGMHWVRQAPGKGLEWVAVISYDGSNKYYADSVKGRFTISRDNSKNTLYLQMNSLRAEDTAVYYCARDRPGGMDVWGKGTMVTVSS VL: DVVMTQSPLSLPVTLGQPASISCRSSQSLVHSNGNTYLTWFQQRPGQSPRRLIYKVSNRDSGVPDRFSGSGSGTDFTLKISRVEAEDVGVYYCMQGTRWYTFGQGTKLEIKR |  |  | 3.66 OD450 | 0.09 OD450
3-64 (Fab, V domains shown, soluble Fab from phage display library huFabL-4, Flag tag) VH: QLQLQESGGGLVQPGGSLRLSCAASGFTFSSYAMSWVRQAPGKGLEWVSAISGSGGSTYYADSVKGRFTISRDNSKNTLYLQMNSLRAEDTAVYYCASGHSSHAFEIWGQGTTVTVSS VL: not shown |  |  | 3.64 OD450 | 0.07 OD450
3-66 (Fab, V domains shown, soluble Fab from phage display library huFabL-4, Flag tag) VH: QVQLVESGGGVVQPGRSLRLSCAASGFPFRTYGMHWVRQAPGKGLEWVSSISSSSSYIYYADSVKGRFTISRDNAKNSLELQMNSLRAEDTAVYYCARTTRGAFDIWGKGTMVTVSS VL: LSSELTQDPAVSVALGQTVRITCQGDSLRSYYASWYQQKPGQAPLLVIYGRNNRPSGIPDRFSGSSSGNTASLTITGAQAEDEADYYCNSRDSSGVPFGTGTQLTVLS |  |  | 2.56 OD450 | 0.1 OD450
